Consider 7 molecules from patent US20220096653A1, “CONJUGATE COMPRISING LIGAND AND CEACAM5 ANTIBODY FAB FRAGMENT” (ASTELLAS PHARMA INC., priority 2019, published 2022).

This test has as its target T1, CEACAM5 (R&D Systems, 4128-CM-050) (human, UniProt P06731 35-685).
T1 construct: Immobilised on the ELISA plate; also called human CEACAM5
T1 sequence (looked up): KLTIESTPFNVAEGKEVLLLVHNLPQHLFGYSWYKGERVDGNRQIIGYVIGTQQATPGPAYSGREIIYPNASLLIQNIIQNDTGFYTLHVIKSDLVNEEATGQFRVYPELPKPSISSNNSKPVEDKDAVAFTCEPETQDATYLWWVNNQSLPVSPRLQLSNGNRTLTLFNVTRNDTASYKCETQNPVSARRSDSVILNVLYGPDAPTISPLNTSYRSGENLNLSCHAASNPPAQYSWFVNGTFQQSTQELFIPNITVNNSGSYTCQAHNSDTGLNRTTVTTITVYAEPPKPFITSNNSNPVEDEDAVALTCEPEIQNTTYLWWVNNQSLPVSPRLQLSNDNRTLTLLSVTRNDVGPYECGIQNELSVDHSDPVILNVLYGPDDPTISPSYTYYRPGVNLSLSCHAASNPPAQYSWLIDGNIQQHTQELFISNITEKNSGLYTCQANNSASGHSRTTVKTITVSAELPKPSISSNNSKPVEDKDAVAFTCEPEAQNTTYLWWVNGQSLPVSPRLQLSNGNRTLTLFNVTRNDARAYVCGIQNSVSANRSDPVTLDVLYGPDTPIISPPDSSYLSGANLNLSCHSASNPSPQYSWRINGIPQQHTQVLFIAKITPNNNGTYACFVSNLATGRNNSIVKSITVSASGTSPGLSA
Kind of test: ELISA on immobilised CEACAM5, 4-parameter fit, duplicate. How it is done:
Each anti-human CEACAM5 antibody Fab fragment conjugate prepared in Example 2 was subjected to ELISA to evaluate the binding activity thereof to CEACAM5. In the present test, a phosphate buffer (Nacalai Tesque Inc., 0.1 mol/L-Phosphate Buffer Solution (pH 7.2)) prepared to 10 mM by diluting 10-fold with distilled water was used as a solvent for an antigen immobilization liquid, and 20×PBS/Tween 20 Buffer (Thermo Fisher Scientific Inc., 28352) diluted 20-fold with distilled water was used as a wash liquid. In addition, for bovine serum albumin (BSA) used in the present test, 30% Bovine Serum Albumin solution (Sigma-Aldrich, Inc., A9576-50ML) was added in an appropriate proportion for use. CEACAM5 (R&D Systems, 4128-CM-050) was diluted with a 10 mM phosphate buffer (pH 7.2) to 0.1 μg/mL, and added to a Nunc MaxiSorp White 384 plate (Nunc, 4603272) at 30 μL per well, and the plate was incubated overnight at 4° C. for immobilization. The CEACAM5 immobilization liquid was removed by reverse centrifugation, and then blocking was carried out by adding a PBS/Tween 20 buffer containing 5.0% BSA. Thereafter, the blocking solution was removed by reverse centrifugation, a solution of each CEACAM5 antibody Fab² fragment conjugate described above or a Fab² fragment having no labeling portion (PB009-01) as a control at about 10000 ng/mL was diluted in 14 steps by 3-fold dilution using a PBS/Tween 20 buffer containing 1.0% BSA, and 30 μL was added per well and incubated at room temperature for 60 minutes. The plate was washed 3 times with a PBS/Tween 20 buffer, and Horseradish Peroxidase (HRP)-labeled goat anti-human IgG (H+L chain) antibody (MBL Life Sciences, 206) diluted 1000-fold using a PBS/Tween 20 buffer containing 5.0% BSA was added at 30 μL per well and incubated at room temperature for 30 minutes. The plate was washed 3 times with a PBS/Tween 20 buffer, and ECL Prime Western Blotting DETECTION Reagent (GE Healthcare, RPN2232) as a substrate was added at 30 μL per well. The substrate was incubated at room temperature for 15 minutes, and then a signal value thereof was measured using an Envision counter (PerkinElmer, Inc.).
The test for each antibody was carried out in duplicate, and an EC₅₀ value was calculated using a 4-parameter logistic curve model.
A general note: In an ELISA, binding on a coated surface is turned into a signal by an enzyme label.

B1: (Y-S1-X)p-Fab^2 with Y Gd/DOTA, S1 -NH-CH2-(1,3-Ph)-C(═O)-, X -Gly-Lys*-Z2(#S)- (Fab, V domains shown)
VH: EVQLVESGGGLVQPGGSLRLSCAASGFNIRDTYMHWVRQAPGKGLEWVARIDPANGNSRYVPKFQGRFTISADTSRNTAYLQMNSLRAEDTAVYYCAPFGYYVSDYAMAYWGQGTLVTVSS
VL: DIQLTQSPSSLSASVGDRVTITCRAGESVDIFGVGFLHWYQQKPGKAPKLLIYRASNLESGIPSRFSGSGSRTDFTLTISSLQPEDFATYYCQQTNEDPYTFGQGTKVEIKR
modifications: labeling may sit on this chain; sites not stated; labeling portion (MW 1059) on amino groups of the Fab, sites and chain not stated; 1-2 per Fab by MS
notes: also called Ex-No 6; conjugate 6
For the molecule B1, the EC50 (commonly the concentration at which the effect is half-maximal) was 140 pM.

B2: [Gd/DOTA-NH-CH2-(1,4-Ph)-NH-C(═O)-Met-Ile-NH-(CH2)2-Z1(#N)]p-Fab^2 (Fab, V domains shown)
VH: EVQLVESGGGLVQPGGSLRLSCAASGFNIRDTYMHWVRQAPGKGLEWVARIDPANGNSRYVPKFQGRFTISADTSRNTAYLQMNSLRAEDTAVYYCAPFGYYVSDYAMAYWGQGTLVTVSS
VL: DIQLTQSPSSLSASVGDRVTITCRAGESVDIFGVGFLHWYQQKPGKAPKLLIYRASNLESGIPSRFSGSGSRTDFTLTISSLQPEDFATYYCQQTNEDPYTFGQGTKVEIKR
modifications: labeling may sit on this chain; sites not stated; labeling portion (MW 1074) on amino groups of the Fab, sites and chain not stated; 1-3 per Fab by MS
notes: also called Ex-No 18; Conjugate No. 18
B2 had an EC50 of 240 pM.

B3: (Y-S1-X)p-Fab^2 with Y Gd/DOTA, S1 - (bond), X -Gly-Tyr*-CH2(═O)-NH-(CH2)2-Z1(#N)- (Fab, V domains shown)
VH: EVQLVESGGGLVQPGGSLRLSCAASGFNIRDTYMHWVRQAPGKGLEWVARIDPANGNSRYVPKFQGRFTISADTSRNTAYLQMNSLRAEDTAVYYCAPFGYYVSDYAMAYWGQGTLVTVSS
VL: DIQLTQSPSSLSASVGDRVTITCRAGESVDIFGVGFLHWYQQKPGKAPKLLIYRASNLESGIPSRFSGSGSRTDFTLTISSLQPEDFATYYCQQTNEDPYTFGQGTKVEIKR
modifications: labeling may sit on this chain; sites not stated; labeling portion (MW 960) on amino groups of the Fab, sites and chain not stated; 1-4 per Fab by MS
notes: also called Ex-No 21; conjugate 21
B3: the EC50 came to 270 pM.

B4: [Gd/DOTA-NH-CH2-(1,3-Ph)-C(═O)-Asp-Gly-Lys*-Z2(#N)]p-Fab^2 (Fab, V domains shown)
VH: EVQLVESGGGLVQPGGSLRLSCAASGFNIRDTYMHWVRQAPGKGLEWVARIDPANGNSRYVPKFQGRFTISADTSRNTAYLQMNSLRAEDTAVYYCAPFGYYVSDYAMAYWGQGTLVTVSS
VL: DIQLTQSPSSLSASVGDRVTITCRAGESVDIFGVGFLHWYQQKPGKAPKLLIYRASNLESGIPSRFSGSGSRTDFTLTISSLQPEDFATYYCQQTNEDPYTFGQGTKVEIKR
modifications: labeling may sit on this chain; sites not stated; labeling portion (MW 1073) on amino groups of the Fab, sites and chain not stated; 1-3 per Fab by MS
notes: also called Ex-No 11; Conjugate No. 11
In the case of B4, the midpoint of the response, the EC50, lay at 140 pM.

B5: [Gd/DOTA-NH-(CH2CH2O)3-CH2-C(═O)-NH-CH2-(1,3-Ph)-C(═O)-Gly-Lys*-Z2(#N)]p-Fab^2 (Fab, V domains shown)
VH: EVQLVESGGGLVQPGGSLRLSCAASGFNIRDTYMHWVRQAPGKGLEWVARIDPANGNSRYVPKFQGRFTISADTSRNTAYLQMNSLRAEDTAVYYCAPFGYYVSDYAMAYWGQGTLVTVSS
VL: DIQLTQSPSSLSASVGDRVTITCRAGESVDIFGVGFLHWYQQKPGKAPKLLIYRASNLESGIPSRFSGSGSRTDFTLTISSLQPEDFATYYCQQTNEDPYTFGQGTKVEIKR
modifications: labeling may sit on this chain; sites not stated; labeling portion (MW 1147) on amino groups of the Fab, sites and chain not stated; 1-3 per Fab by MS
notes: also called Ex-No 15; Conjugate No. 15
B5 gave an EC50 of 130 pM.

B6: (Y-S1-X)p-Fab^2 with Y Gd/DOTA, S1 - (bond), X -Gly-Tyr-Lys*-Z2(#N)- (Fab, V domains shown)
VH: EVQLVESGGGLVQPGGSLRLSCAASGFNIRDTYMHWVRQAPGKGLEWVARIDPANGNSRYVPKFQGRFTISADTSRNTAYLQMNSLRAEDTAVYYCAPFGYYVSDYAMAYWGQGTLVTVSS
VL: DIQLTQSPSSLSASVGDRVTITCRAGESVDIFGVGFLHWYQQKPGKAPKLLIYRASNLESGIPSRFSGSGSRTDFTLTISSLQPEDFATYYCQQTNEDPYTFGQGTKVEIKR
modifications: labeling may sit on this chain; sites not stated; labeling portion (MW 988) on amino groups of the Fab, sites and chain not stated; 1-4 per Fab by MS
notes: also called Ex-No 19; conjugate 19
Regarding B6, the EC50 is 260 pM.

B7: (Y-S1-X)p-Fab^2 with Y Gd/DOTA, S1 - (bond), X -Gly-Tyr*-CH2-C(═O)-NH-(CH2O)3-CH2-C(═O)-NH-(CH2)2-Z1(#N)- (Fab, V domains shown)
VH: EVQLVESGGGLVQPGGSLRLSCAASGFNIRDTYMHWVRQAPGKGLEWVARIDPANGNSRYVPKFQGRFTISADTSRNTAYLQMNSLRAEDTAVYYCAPFGYYVSDYAMAYWGQGTLVTVSS
VL: DIQLTQSPSSLSASVGDRVTITCRAGESVDIFGVGFLHWYQQKPGKAPKLLIYRASNLESGIPSRFSGSGSRTDFTLTISSLQPEDFATYYCQQTNEDPYTFGQGTKVEIKR
modifications: labeling may sit on this chain; sites not stated; labeling portion (MW 1149) on amino groups of the Fab, sites and chain not stated; 1-2 per Fab by MS
notes: also called Ex-No 17; conjugate 17
In turn, B7 returned an EC50 of 230 pM.
